A protein production outcome set (Wang et al. 2014)

Assay: label from the status in PepcDB records

Row | Sequence | protein production
1 | MKIYHKFLLYQNKLLKPYVRILLGLVEALTYLASLLLIVGVVYEHGFPLSPVEVQQIQILYKAVWIIFLIDVTLHISLEYRNTKKQYRRLAWILSVLLYLTLVPVIFHRPEEEGAILQVWEFLHGKFYHLILLLVFSLLNLSNGLVRLLGRRTNPSLILAVSFMAIILIGTGLLMLPRCTVNGITWVDSLFTATSAVCVTGLVPVDVSTTFTTSGLVVIILLIQIGGLGVMTLTSFFAMFFMGNTSIYNQLVVRDMVSSNSLGSLLSTLLYILGFTLVIEGIGMVSIWFSIHDTLGMNLEEELAFAAFHSISAFCNAGFSTLSGNLGNSMVMTNHNWLFISVSLLIILGGIGFPILVNFKDIVLYHLRHVWTFVRTRKLERHKMPHLYNLNTKIVLIMTFLLLLIGTLAILAFEWNASFAGMSVADKWTQAFFNATCPRTAGFSSVDLASLSVQTLLVYLFLMWVGGGSQSTAGGVKVNAFAVVVLNLVAVLRGSERVEVFGRELSHDSIRRSNATVVMSLGVLFLFIFILSILEPKASLLALTFECVSALSTVGSSLNLTPQLCDASKLLVSLLMFIGRVGLITLMLGIVKQKKNTKYRYPSDNIIIN | failed
2 | MIDIHCHILPEIDDGPSSLEESLVMAREAVKEGITKIIATPHHLHPSYNNKAAVVKEKVRKLNEAIQKENIPLEILPGQEVRISGDVMDGLVSGDILTLADQGKYLFVEFSSNHVSRYADKLFFQLLSQDIIPIIVHPERNHEFLKNPGLLYDLVNGGALTQITTSSLTGHLGKKIKKFTEQIIEADLTHFLASDAHNVTERTFRIREAFALVEKNYGSSKAYEFQENAELLVENQHVMGPPPQPIVKKKLLGIF | failed
3 | MEITKRIEELREEMVESLKKFISINSVNPAFGGPGEKEKADWLEGLLRDFGFEVDRCDVRDDRGIWRSNIVAKIPGKNREKTLWIVTHIDTVPPGDLSLWETDPFVPVVKDGKVYGRGAEDNGGSMIASIYAGKALIDLGITPEYNFGLALVADEEAGSEYGIQYLIEKGLFSPEDMFLVPDAGNEKGDFIEIAEKSILWFKVMVNGKQGHASRPQTTENALRKGAHLITEIDEALHRKYSDRDELFDEPLSTFEPTRAEKTVDNVNTVPGRFVFYFDCRVLPRYNLDEVLSIVKSILDGRGAELEVVVKQPAPEPTPPDSELVVKLSNVLRSLRGLEAKVGGIGGGTCAAFFRKKGWPAVVWSTIDETAHQPNEYRRISHMVEDAKVFALLGTER | not failed
4 | MSMSSSSSICGDEDGDLLLDEEEEIDFYAILNVPKDATDDEIIKAYRKRCLMFHPDRFVDNDEKKDAERVFVKLRRAHEVLLDPKQRAIYDALGVQGLDTQGWEL | not failed
5 | MIMLNKQGITISLCMIVRDEEETIARCLETVEKIVDEIIVVDTGSVDRTKEIVEKYTSNIYDFQWIDDFAAARNFSFSKATQEYILWLDADDVLLEDAQEALKLLKRELDPKIDAVSMPYHLAMDSNGKPLYCTKRNRLVKREKQFQWFGKVHEYLAISGEVFSSNVAITHKKEKKVTNRNLKIFQNTVAAGEELSPRDLFYYANESTDNQKYDDAVLLYETFLNQDEGWYEEKIYACGKLGDCYAKLGMWEKAIESCVKSFRYDVPRGENCTRIGYIYMEQEKYNEAIFWFKLATEVPMATESPFHSPASYTWLPYLQMCICYSRLGEQDKAYYYNELAASYVPNNAAIEYNRKYFRGVFDKPYKV | failed
6 | MVYELVYELVYAKIYTNKRIPIREDPCMARTTRPLTHTEVQKAKATDKDLTLHDGDGLFLLVKTTGKKIWRFRYQVPGTSKRTMISLGAYPALSLADAREVRSEKLAILVKGIDPQARAGEEAEKLQIAQESIFVNVARKWFELKQSHVSADHAKDIWRSIEKDILPSIENVPIQELKARTLIQVLEPIKARGALETVRRLVQRINEIMIYAVNVGLIEANPASGIGNAFERPKKQHMPIIRPEELPKLMRTISMSNLSIPTRCLLEWQLLTLIRPAEASATAWSEIDIENKQWCIPAERMKAKRDHIVPLSEQALELLEIMRPISGNRQYVFPSRNDPRKPMNSQTANAALKRIGYSGKLVAHGLRSIASTAMNEAGFNADVIEAALAHSDKNEVRRAYNRSTYLTQRVELLGWWGEFVNRTQVI | failed
7 | MNGMGGALRAASGKLNGLLNFARQLAFVKLFGVYLPRNNQFNNATACADLLCKAEVIPGSESHFRPRRQPDASGAASGIAGRQSAGASGARQQSSNEENHDARRHGRRGRVHRDRAFRNRMRGERSARRHRSGIGRLIRRALRSRAAHGIARRRVSRAIAGGVGRGRPGRGHDARGGDAGRRRRDGRAIRAAAGCGHARAGRARAGHAHVGRARVRRHDSRRFVAMGEYGGLAARLGCARRFQHRCAGDAARLVRGCAAGARREPRPHVRADPGDSLSRQSRVARCRARSGLMRVLFAISLLAVAWLAGCTGLRGGIERDARRESNESAALFKRASDGDNSVHALAPVVVDDGLWVSAGAVKLRSGEQLPPLFDEPASFDRAVSSLSEFAEQITRLTQVPTQVAASAQQAAARSQQGGGADGAARSAPVFLDAAGARSTPPLPPGMPGGASAGGGKAGGSGAGPDGGAGTSFAPVRIVYAGGTLRGLLDAACARFGVFWKYEQGTIRFFFTDTRTFQVNAIPGDSSLNASVVSGATSDGTSGGSQSGGSGGGINGASGGTTGLTANNTANTAVNSQLSVFNGLQSAIQSMLSRYGSSVSSPATGSISVTDTPDVLERVAAFMTQQNRSLSRQVLLNVTVLSVSLKAGDAYGIDWSLVYKTMSAGFNITNPFNPVSLTKPADLSATVLSPTSRFNGTKLLIRALSQQGTVRRKTSASVTTLNNQPVPVQVATQTGYLASVSTTNTANVGSSTALTPGVVTTGFNMTLLPHVLDDGTVMLQFSTNISSLLQLKEVSSSTGGRSAARIQTPDVDMRNFLQRVAMKSGETLVISGYEGANDSLDERGVGTPKMIALGGGYEAQRAREVIVILITPVTQRGGA | failed
8 | MLYRLEKCCTPEIRLLSTYDVCSIAIAAPMRATRSQGVWDFFWETILMAYTTAQLVTAYTNANLGKAPDAATTLTLDAYATQTQTGGLSDAAALTNTLKLVNSTTAVAIQTYQFFTGVAPSAAGLDFLVDSTTNTNDLNDAYYSKFAQENRFINFSINLATGAGAGATAFAAAYTGVSYAQTVATAYDKIIGNAVATAAGVDVAAAVAFLSRQANIDYLTAFVRANTPFTAAADIDLAVKAALIGTILNAATVSGIGGYATATAAMINDLSDGALSTDNAAGVNLFTAYPSSGVSGSTLSLTTGTDTLTGTANNDTFVAGEVAGAATLTVGDTLSGGAGTDVLNWVQAAAVTALPTGVTISGIETMNVTSGAAITLNTSSGVTGLTALNTNTSGAAQTVTAGAGQNLTATTAAQAANNVAVDGGANVTVASTGVTSGTTTVGANSAASGTVSVSVANSSTTTTGAIAVTGGTAVTVAQTAGNAVNTTLTQADVTVTGNSSTTAVTVTQTAAATAGATVAGRVNGAVTITDSAAASATTAGKIATVTLGSFGAATIDSSALTTVNLSGTGTSLGIGRGALTATPTANTLTLNVNGLTTTGAITDSEAAADDGFTTINIAGSTASSTIASLVAADATTLNISGDARVTITSHTAAALTGITVTNSVGATLGAELATGLVFTGGAGADSILLGATTKAIVMGAGDDTVTVSSATLGAGGSVNGGDGTDVLVANVNGSSFSADPAFGGFETLRVAGAAAQGSHNANGFTALQLGATAGATTFTNVAVNVGLTVLAAPTGTTTVTLANATGTSDVFNLTLSSSAALAAGTVALAGVETVNIAATDTNTTAHVDTLTLQATSAKSIVVTGNAGLNLTNTGNTAVTSFDASAVTGTGSAVTFVSANTTVGEVVTIRGGAGADSLTGSATANDTIIGGAGADTLVYTGGTDTFTGGTGADIFDINAIGTSTAFVTITDAAVGDKLDLVGISTNGAIADGAFGAAVTLGAAATLAQYLDAAAAGDGSGTSVAKWFQFGGDTYVVVDSSAGATFVSGADAVIKLTGLVTLTTSAFATEVLTLA | failed
9 | MPKQTGNARNPFVLLALFILVCSGGCATYPISHDKAVPVARGALFEYPYFHDQVTGIAVSGQGRIFVNFPRWDKDPLYSVAEVLPDGSLRPYPDHGWNRWGADETAHPEAHFICVQSVFVDHSDFLWILDPASPAFNGVVPGGAKLVKVNLKTDQVERVIPFAPSAAPHESYLNDVRIDPEGNFAFITDSGKGAIVVVDLESGKARRLLSGHPSTKAEPGYVPVIEGKELRNEDGTVPKIHADGIALDSRGEYLYYHALVGRTLYRIRTSFLKDPSLPEKDLENHVERIAETGAADGMLMDAQDNLYLTALEENAVKRYRPSEPTLNTIIQGGLHWPDSLAISPDNYLYVTDSQINLAPRFNHGKDLRIIPYKFFKTWLMPFSHDGLLPP | failed
10 | MILPWLILIPFIGGLLCWLGERFGSTLPRWIALLTMTLELALGLWLWATGNFGYAPVPGADPTWALEFHHPWITRFGIDVHLALDGLSLLMILLTGLLGVLSVLCSWKEIQRKVGFFHLNLMWILGGVVGVFLAIDLFMFFFFWEMMLVPMYFLIALWGHSSSDGKKTRIYAATKFFIFTQASGLIMLVAILGLVLVHFNQTGVITFAYADLLKTKLAPGTEYILMLGFFIAFAVKLPVVPLHSWLPDAHAQAPTAGSVDLAGILLKTAAYGLLRFALPLFPNASAEFAPIAMALGLVGIFYGAFLAFAQTDIKRLIAFSSVSHMGFVLIGIYSGSQQALQGVLIQMIAHGLSAAALFILSGQLYERLHTRDMREMGGLWSRIAYIPAISLFFAAASLGLPGTGNFVGEFLILLGSFASAPWITAIATSGLVFGSVYSLIMIHRAYFGPAKSDEVLKGMDGREMIMVLGLAVLLVVLGVFPQPFLDTSAATMHGVQQWLGTAFTQLASAR | not failed
11 | MVEIEYRKTRIKLGDTDLVYEPAEDSFLLADAALKDAKPGMRILEIGTGSGFVSSVLLTNLKEIYLVATEINPHAARCAKMNGVKVIRTDLFKGIKSKNPENLFDLILFNPPYLPTSEEEKVPGWLNYAFDGGISGRDTLDRFLDEVRDYLKLGGEILVLISSITGLDAVKAKMEKLGFEVEVVARKKVSFEELMVVKGKLL | failed
12 | MSMVVDSVPDSSTFVGKTIRPVAAVSIHGIVFDGERLLAVDSKNGYLLEIDPYTNNTKLLNGQYWQEFIGATGLAIADRQLWFSSGQYVYTCNLEGPDLKPEVFAWFDDPVNGVAIWESTVYITCHKRGHIWVYGRDTRKLVATFYSPGIGVENITVRGEELWVCDSAEQSVYCLDRATGEINFSLITPFESPTGLAFYDDQAVGKATLYVAYVQQEPYVRDNPNADPNHELMYRETTFIHPLYFYNDPHQCCAFSNGYLVEMRYVEELAPLDPVDLKQVEWRMALPAVTPRQRIRKIESVGLPFSRIDDVNGQKVAVFEFDQLDLDSRAVFGWRVEMEVWGIKYRLKPSDCEHLPALPEGFADRYLVDNDNLSMETDIIIRAAAEAIGRETNLLRQMFNIRNYVYDRLSYGIKPHIDTPDLALRRGVGSCGEYVGVLLALARLNGIACRTAGRYKCPPHPLQRNLPMEPDFNHVWFEFYLPGIGWLPMESNPDDTNDGGPYPTRFFMGLAWYHAETAKDVPFEQLLSQGIPVNKQVVSIGELAINHVQFTILEELDPAAHLAHLEHHHHHH | not failed
13 | MDHQLQQLLDLGLEAKCLLVGINGHWGRAPWWSRPQRGRWPGGCGHLPIFQGGPERICRVLLSARGRAAAAMAAVSWPAIRLALSHVANCATAVLPPLAIDRCQAMSRPQRPARRGAEGQVRIVGGRWRNTRLAVPSLTGLRPSSDRVRETLFNWLMPRLPGARVLDLFAGSGALGLEAVSRGAGHATLIERDSSLVQRLRAHVTRLDAATQVQVLQEDAVRWLERAPAALADIVFVDPPFAACLWPAVLERLPAHVAADAWLYLEAPADAPLLPAGWHLHREGATREVRYALYRRAAATLASDPTPVVSV | failed
14 | MSLRTKGNAELILQIDAYLPDTYISDQRHKIEIYKKIRQIDNRVNYEELQEELIDRFGEYPDVVAYLLEIGLVKSYLDKVFVQRVERKDNKITIQFEKVTQRLFLAQDYFKALSVTNLKAGIAENKGLMELVFDVQNKKDYEILEGLLIFGESLLEIKESKEKNSEGHHHHHH | not failed
